Data taken from patent publication US20200283475A1.

Key:
[1] = target: human polyclonal IgG (Gammanorm) (human); test: SPR, ligand on chip; signal left after 96-100 CIP cycles 0.5 M NaOH
[2] = target: human polyclonal IgG (Gammanorm) (human); test: SPR; ratio of remaining capacity to reference Zvar1
[3] = target: human polyclonal IgG (Gammanorm) (human); test: SPR; ratio to reference Zvar2
[4] = target: human polyclonal IgG (Gammanorm) (human); test: SPR, ligand on chip; CIP cycles 0.5 M NaOH
[5] = target: human polyclonal IgG (Gammanorm) (human); test: column breakthrough, agarose beads, ligand […], 6 min residence
[6] = target: human polyclonal IgG (Gammanorm) (human); test: column breakthrough, ligand 7.0 mg/ml; after 24 h 0.5 M NaOH
[7] = target: human polyclonal IgG (Gammanorm) (human); test: column breakthrough, ligand […]; after 24 h 0.5 M NaOH
[8] = target: human polyclonal IgG (Gammanorm) (human); test: column breakthrough, agarose beads, ligand 7.0 mg/ml, 6 min residence
[9] = target: human polyclonal IgG (Gammanorm) (human); test: SPR; ratio to reference Zvar4
[10] = target: human polyclonal IgG (Gammanorm) (human); test: SPR, 1 M NaOH; ratio to reference Zvar4
[11] = target: human polyclonal IgG (Gammanorm) (human); test: SPR, ligand on chip; CIP cycles 1 M NaOH

Row | Substance | Capacity after 96-100 cycles [1] | Capacity relative to reference [2] | Remaining capacity 100 cycles (%) [4] | also measured
1 | Zvar(Q9A,N11E,Q40V,A42K,N43A,L44I,D53K)1 (designed binder) | 65% | 1.41 |  | 
2 | Zvar(Q9A,N11E,Q40V,A42K,N43A,L44I)2 with YEDG inserted in linker between K58 and V1 (designed binder) |  |  | 72% | Capacity relative to ref. 100 cycles [3]: 1.31
3 | Zvar(Q9A,N11E,Q40V,A42K,N43A,L44I,D53R)1 (designed binder) | 60% | 1.3 |  | 
4 | Zvar(Q9A,N11E,Q40del,A42K,N43A,L44I)1 (designed binder) | 59% | 1.28 |  | 
5 | Zvar(Q9A,N11E,A29S,Q40V,A42K,N43A,L44I)1 (designed binder) | 66% | 1.38 |  | 
6 | Zvar(Q9A,N11E,Q40V,A42K,N43A,L44I)2 with K4, F5, D6, K7 and E8 in linker deleted (designed binder) |  |  | 70% | Capacity relative to ref. 100 cycles [3]: 1.3
7 | Zvar(Q9A,N11E,A29N,Q40V,A42K,N43A,L44I)1 (designed binder) | 61% | 1.3 |  | 
8 | Zvar(Q9A,N11E,A29W,Q40V,A42K,N43A,L44I)1 (designed binder) | 60% | 1.3 |  | 
9 | Zvar(Q9A,N11E,N28A,N43A)4 with an additional N-terminal cysteine (designed binder) |  |  |  | Initial IgG capacity Qb10 [5]: 50 mg/mL; Remaining IgG capacity Qb10 after six 4 h cycles [6]: 44.1 mg/mL; Remaining IgG capacity after six 4 h cycles (%) [6]: 90%; Remaining IgG capacity Qb10 after six 4 h cycles [7]: 46.2 mg/mL; Remaining IgG capacity after six 4 h cycles (%) [7]: 93%; Initial IgG capacity Qb10 [8]: 49.1 mg/mL
10 | Zvar(Q9A,N11E,A29H,Q40V,A42K,N43A,L44I)1 (designed binder) | 57% | 1.21 |  | 
11 | Zvar(Q9A,N11E,A29K,Q40V,A42K,N43A,L44I)1 (designed binder) | 59% | 1.28 |  | 
12 | Zvar(Q9A,N11K,H18K,S33K,D37E,A42R,N43A,L44I,K50R,L51Y)1 (designed binder) | 59% | 1.28 |  | 
13 | Zvar(Q9A,N11E,Q40V,A42K,N43A,L44I)2 with D2, A3 and K4 in linker deleted (designed binder) |  |  | 70% | Capacity relative to ref. 100 cycles [3]: 1.27
14 | Zvar(Q9A,N11E,Q40V,A42K,N43del,L44I)1 (designed binder) | 55% | 1.2 |  | 
15 | Zvar(Q9A,N11E,Q40V,A42K,N43A,L44I)2 with A56, P57 and K58 in linker deleted (designed binder) |  |  | 68% | Capacity relative to ref. 100 cycles [3]: 1.26
16 | Zvar(Q9A,N11E,A29E,Q40V,A42K,N43A,L44I)1 (designed binder) | 57% | 1.21 |  | 
17 | Zvar(Q9A,N11E,Q40V,A42K,N43A,L44I)2 with K58, V1 and D2 in linker deleted (designed binder) |  |  | 76% | Capacity relative to ref. 100 cycles [3]: 1.38
18 | Zvar(N11K,H18K,S33K,D37E,A42R,N43A,L44I,K50R,L51Y)1 (designed binder) | 67% | 1.46 |  | 
19 | Zvar(Q9A,N11E,N28A,Q40V,A42K,N43A,L44I)1 (designed binder) | 65% | 1.35 |  | 
20 | Zvar(Q9A,N11E,A29V,Q40V,A42K,N43A,L44I)1 (designed binder) | 62% | 1.32 |  | 
21 | Zvar(Q9A,N11E,N43A)4 (designed binder) |  |  | 81% | Capacity relative to ref. 100 cycles [9]: 1.21; Capacity relative to ref. 200 cycles [9]: 1.72; Capacity relative to ref. 300 cycles [9]: 2.56; Remaining capacity 200 cycles (%) [4]: 62%; Remaining capacity 300 cycles (%) [4]: 41%
22 | Zvar(Q9A,N11K,H18K,D37E,A42R,N43A,L44I,K50R)1 (designed binder) | 67% | 1.49 |  | 
23 | Zvar(Q9A,N11E,Q40V,A42K,N43A,L44I,D53F)1 (designed binder) | 58% | 1.26 |  | 
24 | Zvar(Q9A,N11E,Q40V,A42K,N43A,L44I)2 with V1, D2 and A3 in linker deleted (designed binder) |  |  | 75% | Capacity relative to ref. 100 cycles [3]: 1.39

Row | Substance | Capacity after 96-100 cycles [1] | Capacity relative to reference [2] | Remaining capacity 100 cycles (%) [4] | also measured
25 | Zvar(Q9A,N11E,Q40V,A42K,N43A,L44I)2 with P57, K58, V1, D2 and A3 in linker deleted (designed binder) |  |  | 74% | Capacity relative to ref. 100 cycles [3]: 1.35
26 | Zvar(Q9A,N11E,A29D,Q40V,A42K,N43A,L44I)1 (designed binder) | 56% | 1.19 |  | 
27 | Zvar(Q9A,N11E,A29T,Q40V,A42K,N43A,L44I)1 (designed binder) | 60% | 1.28 |  | 
28 | Zvar(Q9A,N11E,N28A,Q40V,A42K,N43A,L44I)4 (designed binder) |  |  | 84% | Capacity relative to ref. 100 cycles [9]: 1.24
29 | Zvar(Q9A,N11E,A29I,Q40V,A42K,N43A,L44I)1 (designed binder) | 58% | 1.23 |  | 
30 | Zvar(Q9A,N11E,D37E,Q40V,A42R,N43A,L44I)4 (designed binder) |  |  | 84% | Capacity relative to ref. 100 cycles [9]: 1.17
31 | Zvar(Q9A,N11E,Q40V,A42K,N43A,L44I)2 with V1, D2, A3, K4, F5, D6, K7 and E8 in linker deleted (designed binder) |  |  | 62% | Capacity relative to ref. 100 cycles [3]: 1.13
32 | Zvar(Q9A,N11E,A29Q,Q40V,A42K,N43A,L44I)1 (designed binder) | 60% | 1.28 |  | 
33 | Zvar(Q9A,N11E,A29L,Q40V,A42K,N43A,L44I)1 (designed binder) | 61% | 1.33 |  | 
34 | Zvar(Q9A,N11E,Q40V,A42K,N43A,L44I,D53W)1 (designed binder) | 62% | 1.35 |  | 
35 | Zvar(Q9A,N11E,Q40V,A42K,N43A,L44I)4 (designed binder) |  |  | 90% | Capacity relative to ref. 100 cycles [10]: 2.07; Capacity relative to ref. 100 cycles [9]: 1.34; Capacity relative to ref. 200 cycles [9]: 2.06; Capacity relative to ref. 300 cycles [9]: 3.56; Remaining capacity 200 cycles (%) [4]: 74%; Remaining capacity 300 cycles (%) [4]: 57%; Remaining capacity 100 cycles (%) [11]: 56%
36 | Zvar(Q9A,N11E,Q40V,A42K,N43A,L44I,D53Y)1 (designed binder) | 59% | 1.28 |  | 
37 | Zvar(Q9A,N11E,A29Y,Q40V,A42K,N43A,L44I)1 (designed binder) | 61% | 1.27 |  | 
38 | Zvar(Q9A,N11E,A29F,Q40V,A42K,N43A,L44I)1 (designed binder) | 62% | 1.35 |  | 
39 | Zvar(Q9A,N11E,A29R,Q40V,A42K,N43A,L44I)1 (designed binder) | 58% | 1.26 |  | 
40 | Zvar(N11K,H18K,D37E,A42R,N43A,L44I)1 (designed binder) | 59% | 1.31 |  | 
41 | Zvar(Q9A,N11E,N28A,N43A)4 (designed binder) |  |  | 80% | Capacity relative to ref. 100 cycles [10]: 2.04; Capacity relative to ref. 100 cycles [9]: 1.19; Capacity relative to ref. 200 cycles [9]: 1.72; Capacity relative to ref. 300 cycles [9]: 2.62; Remaining capacity 200 cycles (%) [4]: 62%; Remaining capacity 300 cycles (%) [4]: 42%; Remaining capacity 100 cycles (%) [11]: 55%
42 | Zvar(Q9A,N11E,Q40V,A42del,N43A,L44I)1 (designed binder) | 57% | 1.24 |  | 
43 | Zvar(N11E,Q32E,K50R)1 (designed binder) | 53% | 1.04 |  | 
44 | Zvar(Q9A,N11E,D37E,Q40V,A42K,N43A,L44I)4 (designed binder) |  |  | 81% | Capacity relative to ref. 100 cycles [9]: 1.13
45 | Zvar(Q9A,N11E,Q40V,A42K,N43E,L44I)4 (designed binder) |  |  | 84% | Capacity relative to ref. 100 cycles [10]: 2; Capacity relative to ref. 100 cycles [9]: 1.25; Capacity relative to ref. 200 cycles [9]: 1.81; Capacity relative to ref. 300 cycles [9]: 3; Remaining capacity 200 cycles (%) [4]: 65%; Remaining capacity 300 cycles (%) [4]: 48%; Remaining capacity 100 cycles (%) [11]: 54%
46 | Zvar(Q9A,N11E,A29M,Q40V,A42K,N43A,L44I)1 (designed binder) | 62% | 1.32 |  | 
47 | Zvar(Q9A,N11K,H18K,D37E,A42R,N43A,L44I)1 (designed binder) | 63% | 1.4 |  | 
48 | Zvar(Q9del,N11E,Q40V,A42K,N43A,L44I)1 (designed binder) | 60% | 1.3 |  | 
